Source: the DeepSol protein solubility set

Experiment: soluble on expression in E. coli; label from the status in PepcDB or PDB records

| Sequence | soluble on expression in E. coli |
| --- | --- |
| MSLSYRAHGLPVLENLLEQDFSASGPNQKWAGDITYLRTDEGWLYLAVVIDLWSRAVIGWSMSPRMTAQLACDALQMALWRRRRPESVIVHTDRGGQYCSGDYQALLKRHNLRGSMSAKGYCYDNACVESFFHSLKVECIHGERFSSREIMRATVFNYIECDYNRWRRHSACGGLSPEQFENHNLAEGHHHHHH | not soluble |
| MARGLNRVFLIGALATRPDMRYTPAGLAILDLTLAGQDLLLSDNGGEREVSWYHRVRLLGRQAEMWGDLLDQGQLVFVEGRLEYRQWEREGERRSELQIRADFLDPLDDRGKERAEDSRGQPRLRAALNQVFLMGNLTRDPELRYTPQGTAVARLGLAVNERRQGAEERTHFVEVQAWRDLAEWAAELRKGDGLFVIGRLVNDSWTSSSGERRFQTRVEALRLERPTRGPAQAGGSRSREVQTGGVDIDEGLEDFPPEEELPF | soluble |
| MGHHHHHHSHMEAPPVTMMPVTGGTINMMEYLLQGSVLDHSLESLIHRLRGLCDNMEPETFLDHEMVFLLKGQQASPFVLRARRSMDRAGAPWHLRYLGQPEMGDKNRHALVRNCVDIATSENLTDFLMEMGFRMDHEFVAKGHLFRKGIMKIMVYKIFRILVPGNTDSTEALSLSYLVELSVVAPAGQDMVSDDMKNFAEQLKPLVHLEKIDPKRLM | soluble |
| MKGNYVQVYVMLPLDAVSVNNRFEKGDELRAQLRKLVEAGVDGVMVDVWWGLVEGKGPKAYDWSAYKQLFELVQKAGLKLQAIMSFHQCGGNVGDAVNIPIPQWVRDVGTRDPDIFYTDGHGTRNIEYLTLGVDNQPLFHGRSAVQMYADYMTSFRENMKDFLDAGVIVDIEVGLGPAGELRYPSYPQSHGWSFPGIGEFICYDKYLQADFKAAAAAVGHPEWEFPNDAGQYNDTPERTQFFRDNGTYLSEKGRFFLAWYSNNLIKHGDRILDEANKVFLGYKVQLAIKIAGVHWWYKVPSHAAELTAGYYNLHDRDGYRTIARMLKRHRASINFTCAEMRDSEQPPDAMSAPEELVQQVLSAGWREGLNVSCENALPRYDPTAYNTILRNARPHGINQSGPPEHKLFGFTYLRLSNQLVEGQNYVNFKTFVDRMHANLPRDPYVDPMAPLPRSGPEISIEMILQAAQPKIQPFPFQEHTDLPVGPTGGMGGQAEGPTCG | soluble |
| MFRVLHLADLHLGYRPDLPAPVREEVYRARNRVLQAAVDLALDPRQGISLVLIAGDLFDNHRPEASLVEETIRQLTRLEAAGIQVITVPGNHDEITYNDAVYRREAGRWPGLLVTDPMPAKVATLKVKGDTCHLMAMAYTGGVTRVDGPLKAFPPAEGEGVNLAVFHGSLDWDGGERSLPLDGEALAAAGYDYIALGHIHRGGQRRLGRGLAVYAGMVAGKGFADPGTGSWTIVTLGDGPARVEQVPARVTPWRLVDLDVTAFQEPEELETAVRDALDPLEHHHHHH | not soluble |
| MEQLLFRHNRPGRCVTFAEYRAEGGFAALEKALAGMSPNDVQQVVIDSGLRGRGGAGFPTGKKWSFVPRDIPGPRYLICNCDEMEPGTYKDRVLLEANPYSLVEGMTLAAYAIGVAHAFIFIRRGYEEAAENCRRAIAEAKAAGLLGENILGTGFSLELDVHQSAGRYICGEETALMNALEGKRANPRSKPPFPAVKGLWGRPTVVNNVETLANIPAIVANGAAWFKGLARIPEAAGMKLFCVSGHVNNTACFELPLGMTLGEIIDGPCGGMLPGREFKACIPGGASTPFFTKEHWHVPMDFDTVAKAGSRLGTGGIVVFDRDTCMVAATLNLIVFYARESCGWCTPCREGLPFVQDVLARIEAGEGREEHIGILREHIQYLNYSFCPLAPGAMGPVEGLLRLFEGEIREHIVLGRCPFGGKLEHHHHHH | not soluble |
| MGSDKIHHHHHHMIYFETERLICRAFERADLQAFTAYRADPEVARYQSWQDYQYQDALALFENLQQTPFGANGTWMQLALVCRQTQALVGDLALHFIDAQQVEIGFTLASEHQGKGLAREALQGLLVYLFERLGKHRVSAITDVKNRAAWGLLERLGFRREAHYRDNIFFKGSWGSEYGYGLLAREWRQAQVGEPLQEFRLIKRVAPLNDFLRLRQITGLTPRSREAAELGLPLSLFGVHLLAGDRVLAMGRVVGDGALNFELVDIAVDPEYQGRGLGSAIMSAIMAYLDEMAPKGAYITLMADVPALYLKFGFEYSRPASEGMYKLQA | not soluble |
| MATFMTEDFLLKNDIARTLYHKYAAPMPIYDFHCHLSPQEIADDRRFDNLGQIWLEGDHYKWRALRSAGVDESLITGKETSDYEKYMAWANTVPKTLGNPLYHWTHLELRRPFGITGTLFGPDTAESIWTQCNEKLATPAFSARGIMQQMNVRMVGTTDDPIDSLEYHRQIAADDSIDIEVAPSWRPDKVFKIELDGFVDYLRKLEAAADVSITRFDDLRQALTRRLDHFAACGCRASDHGIETLRFAPVPDDAQLDAILGKRLAGETLSELEIAQFTTAVLVWLGRQYAARGWVMQLHIGAIRNNNTRMFRLLGPDTGFDSIGDNNISWALSRLLDSMDVTNELPKTILYCLNPRDNEVLATMIGNFQGPGIAGKVQFGSGWWFNDQKDGMLRQLEQLSQMGLLSQFVGMLTDSRSFLSYTRHEYFRRILCNLLGQWAQDGEIPDDEAMLSRMVQDICFNNAQRYFTIK | not soluble |
| MSLGGSVEVLHWWTAGGEAKAVSALKDQFEAEGGTWIDSPVAGGGGDAAMTALRSRVIAGNPPSAVQLKGPSIQEWAAEGVVANLDDIAKAENWDKLLPALLKSVVTYEGHYVAVPVNIHRVDWLWANPAVLAKAGVAVPTTWDEFNTAAEALKAKGIIPLAHGGQPWQDATLFEVVVLGLGGPAFYHKALVELDDAALRGDTMVKVFDQMRRLRGFVDPNFSGRDWNLATAMVINGEAGFQIMGDWAKGEFLGAGKVPGKDFLCIAAPGKGFLLNSDSLVMFDVKGADKIEGQKTLARLVLGETFQRTFNTLKGSIPARQGMDLADFDACAQKSQADLTKAIAADSLEPSMAHEMAVPRSVRGAIMDVVTAHFNSSESSAEAVAHLADSIAQAREGHHHHHH | soluble |
| MARKAESSNRLDDAARAGWLYYVAGRTQDEIASVMGISRQSAQRLVSLAMAERLIKVRLDHPIAACLEMAARLKEKYDLKHVDVVPSDPGSDSTTVGIAEAGAAEIERWLKSAEPVVLAIGTGRTLKATIDQLPSMECPQHRIVSLTGNIRLDGSAAYYNVIFSMADTIKARHFPMPLPVLVSSPEEREVLHKQSLVQIALELGAEADAAFVGVGELGPDAPLCEDGFLARDEMARLMAAGAAGEICGWMFDHEGVLLPDSINERVASVPLPPRDRASVIGIAKGRRKHEALRAALKGRIINGLVTDEATADYLLRV | not soluble |
| MGSDKIHHHHHHMEEKLSDVKVSGSGSIGGGNYDEVKISGSAKINGNVNCNSYMCSGSSTANGNITAKEIVKISGTTKVHGDLNSGDLIVSGSSRTFGNVTAKKIKISGSSDIEGNVHTDSIDISGSVSIGEDCEAEHFHARGGFEIAGLLNAGDIEIYMYGKCRVKDIGGENITVKLGSGHFIHEMMNLFFTRGRLVTSIIEGDNIYLEHTDAKIVRGNNITIGPNCNIENIEYKNQLNMDQSCKALCKKVDE | not soluble |
| MGSDKIHHHHHHMSRLLRSPQTGAGKLFSAASSENFSKQNLIDAVIKEARRKVMEAEFQKKFMQSWSRYFPGAELPIGFYYTDSAETKFMAKPPKRHRCIIGDLAKVRKGKPQCFDNNAIGCFGGKRYLGFESKLTPDFEYFLSCGIPGKIEGERYKKSPELVKEHLKHQQPLKAPGNYIIFKRWDQMENADIPSVVIFFAAPDVLSGLFTLANFDETHPHGVIAPFGAGCASIVDYPYKELNSPDPRSVLGMFDVSARPCVPSNVLTFAVPWPKFVRMVGNMDESFLITRSWNKVKTRIKKEHAKSNDK | not soluble |
| MGSDKIHHHHHHMIALGIEGTAWSLSIGVVDEEGVIALENDPYIPKEGGIHPREASQHHSERLPSLLSRVFEKVDKNSIDVVAFSQGPGMGPCLRVVATAARLLAIKLEKPLVGVNHCLAHVEVGRWQTGARKPVSLYVSGGNSQVIARRGNRYRVFGETLDIGIGNALDKLARHMGLKHPGGPKIEELAKKGQKYHFLPYVVKGMDFSFSGMVTAAQRLFDSGVRMEDVAFSFQETAFAMLTEVTERALAYLDLNEVLLVGGVAANKRLQEMLRIMCEDRGAKFYVPPKELAGDNGAMIAYTGLLMYKHGHQTPVEKSYVRPDFRIEDVEVNWD | not soluble |
| MCGISGEFRFDNQAADLAAVERITHHLAPRGPDAWGFHAQGPIALGHRRLKIMDLAEASGQPMIDPDLGLAMVFNGAIYNYPELRGELESLGYRFFSGGDTEVLLKGYHAWGADLLPRLNGMFAFAVWERDRQRLFLARDRLGIKPLYYSLDRSRLRFASSLPALLKGGDIASDLDPQALNFYLNFHAVVPAPHTLLEGVKKLPPATWMSVDLDGSCEQRTWWTLDYGPRPDERELTLDDWQERVLDGLREAVAIRQRAAREVGVLLSGGVDSSLLVGLLHEAGVDNLLTFSIGFEDAGGERGDEFQYSDLIAERYHTRHHRLRIGEHEVIEQLPAAFRAMSEPMVSHDCIAFYLLAREVSKHCKVVQSGQGADELFAGYHWYPKVDGADDAFAAYRAAFFDRDHEEYLATVGERFRVEDVAGRFVRDHFASPGAEAAVDKALRLDSTIMLVDDPVKRVDNMTMAWGLEARVPFLDYRLAELSARIPARFKLGDGGKQVLKGAARKVIPSEVIDRPKGYFPVPGLKHLQGRTREWVRELLLDPSQDRGLFQPAIFDRLLSDPDGDLTPLRG | not soluble |
| LAIAAIRNLLIKNDIEILAELTEGGSAVQRVETLKPDIVIIDVDIPGVNGIQVLETLRKRQYSGIIIIVSAKNDHFYGKHCADAGANGFVSKKEGMNNIIAAIEAAKNGYCYFPFSLNRFVGSLTSDQQKLDSLSKQEISVMRYILDGKDNNDIAEKMFISNKTVSTYKSRLMEKLECKSLMDLYTFAQ | not soluble |
| MQLRKKLHEAIVDGEEDDCPKRKIKKLDIQVDAATKVFSNQHILHDIIEYTVDGDKSILDNLRLRLVSRSFNNVVLSKVRAEFKMVQVCPYQQPEGADEKEEPEYDESNDIEDRSFMINDRRTWFSQVPRFFEFLNSVARIRVRDLLFSGFTSPDQRIHECILYSLLDGNWYSLNSYKGADELCNGCAVCSGNCFPLLAEIALHCVTMVGSREEAFSRLTKMITQDVNCDQLDLVFSDRCMWSKGTLAHPREVIDRIVKAWRVKSINIRFMTEYSSIDHEMWSNKRIFTEMRFDEMFVTDHNIIRPRHERDHFERVEVDMQAGDEIATCFAESMGMFEQSGMSATAFQNVCANVKRIFPTQDMYLILPTELAHVASVEFDGFCKALLEFAWKDERTARHSRLFFRLYTFGITEEQVLRQTENQFKINCRPVAAMLSDSSVRRSFLQWLPGSTSTFDRSLLSFTDVWNNCVLHLEVCIEADC | not soluble |
| MQTGRQQNKGTIFASLNMSRKNRHNVLPRATMLRKKAIQIRLNEAEHKAVETYCSRFKVENRSRWIRETLMKEVIHRLESDTPLLFREEEMR | not soluble |
| MTTEIKKLDPDTAIDIAYDIFLEMAGENLDPADILLFNLQFEERGGVEFVETADDWEEEIGVLIDPEEYAEVWVGLVNEQDEMDDVFAKFLISHREEDREFHVIWKK | soluble |
| MGSDKIHHHHHHMKTTSPSSYDEMLNADGSVRSAYAGYCKWYDEQPPDLLRRKGSEAEAFFRRTGITFNVYGNEDAEERLIPFDMVPRIITAQQWRKLSRGIEQRVRALNAFLHDLYHRQEIVRSGRLPVRLLKGNEAFLPEMVGFTPPGGVYTHIVGIDLVRTGEDDFMVLEDNARTPSGVSYMLENRETMMAMFPELFTRVRVREVSDYPRRLARSLAACAPPACDGKKPVVAVLTPGIYNSAYFEHAFLADQMGAELVEGSDLRVENGRIAMRTTRGYQPIDVLYRRVDDEYLDPLSFNPGSVLGVSGIMDVYRSGGITIANAPGTGIADDKAIYSFMPEIVEFYTGEKPILQNVPTWRCAEPDALAYVLDNLAELVVKEVHGSGGYGMLIGPTSSRKELAAFEAKLRARPENYIAQPTLSLSTVPILTKAGLAPRHVDLRPFVLVSPNGIDITPGGLTRVALKKGSLVVNSSQGGGTKDSWVLDD | not soluble |
